Data on 1 substance can be found in publication doi:10.1101/701250.

The experiment deals with APC-TMR (Mus musculus) (UniProt Q61315). In words: TIRF microscopy in vitro motility assay.

In the case of APC-TMR, Q61315 1-2845, the stoichiometry N was 2.
